Measurements from patent publication US8748182B2, “Mutant proteins and methods for producing them” (Heptares Therapeutics Limited, priority 2007, dated 2014).
Changes are numbered by the printed parent chain. Names and notes keep the numbering of the source.

B1: Rant 5: A2aR with A54L/T88A/V239A (protein, UniProt P29274 1-412, looked up, variant A54L T88A V239A)
Adenosine receptor A2a: MPIMGSSVYITVELAIAVLAILGNVLVCWAVWLNSNLQNVTNYFVVSLAAADILVGVLAIPFAITISTGFCAACHGCLFIACFVLVLAQSSIFSLLAIAIDRYIAIRIPLRYNGLVTGTRAKGIIAICWVLSFAIGLTPMLGWNNCGQPKEGKNHSQGCGEGQVACLFEDVVPMNYMVYFNFFACVLVPLLLMLGVYLRIFLAARRQLKQMESQPLPGERARSTLQKEVHAAKSLAIIAGLFALCWLPLHIINCFTFFCPDCSHAPLWLMYLAIVLSHTNSVVNPFIYAYRIREFRQTFRKIIRSHVLRQQEPFKAAGTSARVLAAHGSDGEQVSLRLNGHPPGVWANGSAPHPERRPNGYALGLVSGGSAQESQGNTGLPDVELLSHELKGVCPEPPGLDDPLAQDGAGVS
B2: Rag 1: A2aR with A184L/R199A/L272A (protein, UniProt P29274 1-412, looked up, variant A184L R199A L272A)
Adenosine receptor A2a: B1 Adenosine receptor A2a with L54A, A88T, A184L, R199A, A239V, L272A
B3: V57A: A2aR point mutant (protein, UniProt P29274 1-412, looked up, variant V57A)
Adenosine receptor A2a: B1 Adenosine receptor A2a with L54A, V57A, A88T, A239V
B4: S213A: A2aR point mutant (protein, UniProt P29274 1-412, looked up, variant S213A)
Adenosine receptor A2a: B1 Adenosine receptor A2a with L54A, A88T, S213A, A239V
B5: A204L: A2aR point mutant (protein, UniProt P29274 1-412, looked up, variant A204L)
Adenosine receptor A2a: B1 Adenosine receptor A2a with L54A, A88T, A204L, A239V
B6: A231L: A2aR point mutant (protein, UniProt P29274 1-412, looked up, variant A231L)
Adenosine receptor A2a: B1 Adenosine receptor A2a with L54A, A88T, A231L, A239V
B7: A203L: A2aR point mutant (protein, UniProt P29274 1-412, looked up, variant A203L)
Adenosine receptor A2a: B1 Adenosine receptor A2a with L54A, A88T, A203L, A239V
B8: T119A: A2aR point mutant (protein, UniProt P29274 1-412, looked up, variant T119A)
Adenosine receptor A2a: B1 Adenosine receptor A2a with L54A, A88T, T119A, A239V
B9: P149A: A2aR point mutant (protein, UniProt P29274 1-412, looked up, variant P149A)
Adenosine receptor A2a: B1 Adenosine receptor A2a with L54A, A88T, P149A, A239V
B10: L235A: A2aR point mutant (protein, UniProt P29274 1-412, looked up, variant L235A)
Adenosine receptor A2a: B1 Adenosine receptor A2a with L54A, A88T, L235A, A239V
B11: L167A: A2aR point mutant (protein, UniProt P29274 1-412, looked up, variant L167A)
Adenosine receptor A2a: B1 Adenosine receptor A2a with L54A, A88T, L167A, A239V
B12: G118A: A2aR point mutant (protein, UniProt P29274 1-412, looked up, variant G118A)
Adenosine receptor A2a: B1 Adenosine receptor A2a with L54A, A88T, G118A, A239V
B13: L208A: A2aR point mutant (protein, UniProt P29274 1-412, looked up, variant L208A)
Adenosine receptor A2a: B1 Adenosine receptor A2a with L54A, A88T, L208A, A239V
B14: G123A: A2aR point mutant (protein, UniProt P29274 1-412, looked up, variant G123A)
Adenosine receptor A2a: B1 Adenosine receptor A2a with L54A, A88T, G123A, A239V
B15: E151A: A2aR point mutant (protein, UniProt P29274 1-412, looked up, variant E151A)
Adenosine receptor A2a: B1 Adenosine receptor A2a with L54A, A88T, E151A, A239V
B16: A184L: A2aR point mutant (protein, UniProt P29274 1-412, looked up, variant A184L)
Adenosine receptor A2a: B1 Adenosine receptor A2a with L54A, A88T, A184L, A239V
B17: V239A: A2aR point mutant (protein, UniProt P29274 1-412, looked up, variant V239A)
Adenosine receptor A2a: B1 Adenosine receptor A2a with L54A, A88T
B18: K122A: A2aR point mutant (protein, UniProt P29274 1-412, looked up, variant K122A)
Adenosine receptor A2a: B1 Adenosine receptor A2a with L54A, A88T, K122A, A239V
B19: G152A: A2aR point mutant (protein, UniProt P29274 1-412, looked up, variant G152A)
Adenosine receptor A2a: B1 Adenosine receptor A2a with L54A, A88T, G152A, A239V
B20: H75A: A2aR point mutant (protein, UniProt P29274 1-412, looked up, variant H75A)
Adenosine receptor A2a: B1 Adenosine receptor A2a with L54A, H75A, A88T, A239V
B21: Q210A: A2aR point mutant (protein, UniProt P29274 1-412, looked up, variant Q210A)
Adenosine receptor A2a: B1 Adenosine receptor A2a with L54A, A88T, Q210A, A239V
B22: R199A: A2aR point mutant (protein, UniProt P29274 1-412, looked up, variant R199A)
Adenosine receptor A2a: B1 Adenosine receptor A2a with L54A, A88T, R199A, A239V
B23: T88A: A2aR point mutant (protein, UniProt P29274 1-412, looked up, variant T88A)
Adenosine receptor A2a: B1 Adenosine receptor A2a with L54A, A239V
B24: Rant17: A2aR with A54L+K122A+L235A (protein, UniProt P29274 1-412, looked up, variant A54L K122A L235A)
Adenosine receptor A2a: B1 Adenosine receptor A2a with A88T, K122A, L235A, A239V
B25: Rant19: A2aR with A54L, T88A, V239A+A204L (protein, UniProt P29274 1-412, looked up, variant A54L T88A V239A A204L)
Adenosine receptor A2a: B1 Adenosine receptor A2a with A204L

experiment: Thermostability of solubilised adenosine A2a receptor and mutants (radioligand binding after or during heating); assay type: physicochemical; conditions: 1% DDM (no glycerol), apo-state; S.D. <1° C.
Source text: FIG. 12 Flow chart showing the two different assay formats of ligand (+) and ligand (−) used to determine receptor thermostablity.
• 1. 315 site-directed mutants made between residues 2-316 of A2aR. • 2. All of these mutants have been assayed for thermostability using an assay measuring agonist and antagonist binding after the heating step (Ligand(−) format as described in FIG. 12). • a. […] Mutations have been combined to generate mutants in a putative antagonist conformation. Wildtype A2aR has a Tm of 31° C. with ZM241385 bound. • a. Rant17 A54L+K122A+L235A Tm 48° C. (ZM241385 bound) • b. Rant19 A54L,T88A,V239A+A204L Tm 47° C. (ZM241385 bound) • c. Rant21 A54L,T88A,V239A+K122A Tm 49° C. (ZM241385 bound) • 4. Mutations from the agonist screen have been combined, but have led to only a very low level of improvement in Tm of +2° C.

Molecule | Tm (° C.) − antagonist [°C] | Tm (° C.) − agonist [°C]
B1 | 42 | –
B2 | – | 26

same assay, conditions: 1% DDM (no glycerol), ligand-occupied state; S.D. <1° C.

Molecule | Tm (° C.) + antagonist [°C] | Tm (° C.) + agonist [°C]
B1 | 46 | –
B2 | – | 34

same assay, conditions: Ligand(−) format, binding after the heating step

Molecule | thermostability assayed with 3H-ZM241385 (antagonist) | thermostability measured with 3H-NECA (agonist)
B3 | improved thermostability | –
B4 | – | improved thermostability
B5 | improved thermostability | –
B6 | improved thermostability | –
B7 | improved thermostability | improved thermostability
B8 | improved thermostability | –
B9 | improved thermostability | –
B10 | improved thermostability | –
B11 | – | improved thermostability
B12 | improved thermostability | improved thermostability
B13 | – | improved thermostability
B14 | improved thermostability | –
B15 | improved thermostability | –
B16 | – | improved thermostability
B17 | improved thermostability | –
B18 | improved thermostability | –
B19 | improved thermostability | –
B20 | improved thermostability | –
B21 | – | improved thermostability
B22 | – | improved thermostability
B23 | improved thermostability | –

same assay, conditions: ZM241385 bound

Molecule | Tm (ZM241385 bound) [°C]
B24 | 48
B25 | 47

experiment: Thermostability assay of detergent-solubilised βAR34-424 and mutants expressed in E. coli ([3H]-DHA binding after heating 30 min); conditions: DDM-solubilised, heated without ligand
Method: To determine Tm in the absence of ligand (apo-state, discontinuous lines), detergent-solubilised receptors were incubated for 30 minutes at the temperatures indicated before carrying out the binding assay. […] Data points are from duplicates measurements in a representative experiment.
Binding assays were performed using [^3H]-dihydroalprenolol (DHA) as radioligand as described under “Methods”. Samples were heated for 30 minutes at different temperatures before the assay. […] Data points are from duplicates of one single experiment. This experiment has been repeated several times with similar results.
Expression of βAR and the mutants was performed in XL10 cells (Stratagene). Cultures of 50 ml of 2×TY medium containing ampicillin (100 μg/ml) were grown at 37° C. with shaking until OD600=3 and then induced with 0.4 mM IPTG. Induced cultures were incubated at 25° C. for 4 h and then cells were harvested by centrifugation at 13,000×g for 1 min (aliquots of 2 ml) and stored at −20° C. For the assays, cells were broken by freeze-thaw (five cycles), resuspended in 500 μl of buffer [20 mM Tris pH 8, 0.4 M NaCl, 1 mM EDTA and protease inhibitors (Complete™, Roche)]. After an incubation for 1 h at 4° C. with 100 μg/ml lysozyme and DNase I (Sigma), samples were solubilized with 2% DDM on ice for 30 minutes. Insoluble material was removed by centrifugation (15,000×g, 2 min, 4° C.) and the supernatant was used directly in radioligand binding assays.
Single point binding assays contained 20 mM Tris pH 8, 0.4 M NaCl, 1 mM EDTA, 0.1% DDM (or corresponding detergent) with 50 nM [^3H]-DHA and 20-100 μg membrane protein in a final volume of 120 μl; equilibration was for 1 h at 4° C. Thermostability was assessed by incubating the binding assay mix, with or without [^3H]-DHA at the specified temperature for 30 minutes; reactions were placed on ice and [^3H]-DHA added as necessary and equilibrated for a further hour. […] Radioactivity was counted on a Beckman LS6000 liquid scintillation counter and data were analyzed by nonlinear regression using Prism software (GraphPad).

Molecule | increase in Tm compared to βAR34-424 (native protein) [°C]
M90A: βAR34-424 point mutant M90A | 8
Y227A: βAR34-424 point mutant Y227A | 8
m7-5: βAR34-424 with M90V, Y227A | 13

same assay, conditions: Table 1; heated 30 min without ligand, then [3H]-DHA binding; DDM-solubilised, E. coli; mean ± S.E. from duplicates

Molecule | Tm (° C.) [°C]
m4-7: βAR34-424 with G67A, G98A, V230A | 38.0 ± 1.2
m6-4: βAR34-424 with R68S, Y227A, A234L, A282L | 41.6 ± 0.1
m6-5: βAR34-424 with R68S, A234L, A282L, A334L | 41.9 ± 0.5
m6-9: βAR34-424 with R68S, Y227A, A234L, A282L, A334L | 43.7 ± 0.4
m6-10: βAR34-424 with R68S, Y227A, A282L, A334L | 47.4 ± 1.1
m6-11: βAR34-424 with R68S, A282L, A334L | 39.1 ± 0.5
m7-1: βAR34-424 with M90V, A282L, F338M | 43.0 ± 0.8
m7-2: βAR34-424 with M90V, A282L | 38.9 ± 0.6
m7-5: βAR34-424 with M90V, Y227A | 45.2 ± 1.0
m7-6: βAR34-424 with M90V, I129V | 40.0 ± 0.6
m7-7: βAR34-424 with M90V, Y227A, F338M | 45.2 ± 2.0
m10-4: βAR34-424 with R68S, M90V, V230A, A334L | 46.9 ± 1.0
m10-8: βAR34-424 with R68S, M90V, V230A, F327A, A334L | 47.3 ± 1.4

same assay, conditions: Table 2; heated 30 min without ligand, then [3H]-DHA binding; DDM-solubilised, E. coli; mean ± S.E. from duplicates

Molecule | Tm (° C.) [°C]
m17: βAR34-424 with R68S, M90V, Y227A, V230A, F327A, A334L | 48.2 ± 1.4
m18: βAR34-424 with R68S, M90V, Y227A, V230A, A282L, F327A, F338M | 49.6
m19: βAR34-424 with R68S, M90V, Y227A, A282L, F327A, F338M as printed (same as m23) | 49.0 ± 0.8
m20: βAR34-424 with R68S, M90V, F327A, A334L | 48.4 ± 0.7
m21: βAR34-424 with R68S, M90V, Y227A, F327A, A334L | 47.0 ± 1.3

same assay, conditions: m4-1 to m4-7 to m4-2; m18 to m23

Molecule | further increase in Tm on adding one mutation to the preceding mutant [°C]
m4-7: βAR34-424 with G67A, G98A, V230A | 2
